Measured values: US11015206B2, “Compositions and methods comprising sequences having hydroxyphenylpyruvate dioxygenase (HPPD) activity” (PIONEER HI-BRED INTERNATIONAL, INC., priority 2014, dated 2021)

B1: P056028-A-08 (protein)
chain: MGPTPTATAAGAAVAAASAAEQAAFRLVGHRNFVRFNPRSDRFQTLAFHHVELWCADAASAAGRFSFALGVPLAARSDLSTGNSAHASLLLRSGSLSLLFTAPYAHGADAATAALPSFSAAAARRFAADHGLAVRAVALRVADAEDAFRASVAAGARPAFGPVDLGRGFRLAEVELYGDVVMRYVSYPDGAAGEPFLPGFEGVASQGAADYGLSRFDHIVGNVPELAPAAAYMAGFTGFHEFAEFTTEDVGTTESGLNSMALANNSENVLLPLNEPVRGTKRRSQIQTFLDHHGGPGVQHIALASDDVLRTLREMRARSAMGGFEFLPPPLSDYYDGVRKCAGDVLTEAQINECQELGVMVDRDDEGVLLQIFTKPVGDRPTFFLEIIQRIGCMEKDEKGQEYQKGGCGGFGKGNFGQLFKSIEDYEKSLEAKQAAATATAQGS
modifications: Zea mays variant form created by artificial means.
B2: P056028-A-10 (protein)
chain: MGPTPTATAAGAAVAAASAAEQAAFRLVGHRNFVRFNPRSDRFQTLAFHHVELWCADAASAAGRFSFALGVPLAARSDLSTGNSAHASLLLRSGSLSLLFTAPYAHGADAATAALPSFSAAAARRFAADHGLAVRAVALRVADAEDAFRASVAAGARPAFGPVDLGRGFRLAEVELYGDVVLRYVSYPDGAAGEPFLPGFEGVASQGAADLGLSRFDHIVGNVPELAPAAAYMAGFTGFHEFAEFTTEDVGTTESGLNSMALANNSENVLLPLNEPVHGTKRRSQIQTFLDHHGGPGVQHIALASDDVLRTLREMRARSAMGGFEFLPPPLSDYYDGVRRCAGDVLTEAQINECQKLGVMVDRDDEGVLLQIFTKPVGDRPTFFLEIIQRIGCMEKDEKGQEYQKGGCGGFGKGNFGQLFKSIEDYEKSLEAKQAAAAATAQGS
modifications: Zea mays variant form created by artificial means.
B3: P056028-A-11 (protein)
chain: MGPTPTATAAGAAVAAASAAEQAAFRLVGHRNFVRFNPRSDRFQTLAFHHVELWCADAASAAGRFSFALGVPLAARSDLSTGNSAHASLLLRSGSLSLLFTAPYAHGADAATAALPSFSAAAARRFAADHGLAVRAVALRVADAEDAFRASVAAGARPAFGPVDLGRGFRLAEVELYGDVVLRYVSYPDGAAGEPFLPGFEGVASPGAADYGLSRFDHIVGNVPELAPAAAYMAGFTGFHEFAEFTTEDVGTTESGLNSMALANNSENVLLPLNEPVHGTKRRSQIQTFLDHHGGPGVQHIALASDDVLRTLREMRARSAMGGFEFLPPPLSDYYDGVRRCAGDVLTEAQINECQELGVMVDRDDEGVLLQIFTKPVGDRPTFFLEIIQRIGCMEKDEKGQEYQKGGCGGFGKGNFSQLFKSIEDYEKSLEAKQAAAAATAQGS
modifications: Zea mays variant form created by artificial means.
B4: P056028-A-04 (protein)
chain: MGPTPTATAAGAAVAAASAAEQAAFRLVGHRNFVRFNPRSDRFQTLAFHHVELWCADAASAAGRFSFALGVPLAARSDLSTGNSAHASLLLRSGSLSLLFTAPYAHGADAATAALPSFSAAAARRFAADHGLAVRAVALRVADAEDAFRASVAAGARPAFGPVDLGRGFRLAEVELYGDVVLRYVSYPDGAAGEPFLPGFEGVASPGAADYGLSRFDHIVGNVPELAPAAAYMAGFTGFHEFAEFTTEDVGTTESGLNSMALANNSENVLLPLNEPVHGTKRRSQIQTFLDHHGGPGVQHIALASDDVLRTLREMRARSAMGGFEFLPPPLSDYYDGVRRCAGDVLTEAQINECQRLGVMVDRDDEGVLLQIFTKPVGDRPTFFIEIIQRIGCMEKDEKGQEYQKGGCGGFGKGNFGQLFKSIEDYEKSLEAKQAAAAATAQGS
modifications: Zea mays variant form created by artificial means.
B5: P056028-A-05 (protein)
chain: MGPTPTATAAGAAVAAASAAEQAAFRLVGHRNFVRFNPRSDRFQTLAFHHVELWCADAASAAGRFSFALGVPLAARSDLSTGNSAHASLLLRSGSLSLLFTAPYAHGADAATAALPSFSAAAARRFAADHGLAVRAVALRVADAEDAFRASVAAGARPAFGPVDLGRGFRLAEVELYGDVVLRYVSYPDGAAGEPFLPGFEGVASQGAADYGLSRFDHIVGNVPELAPAAAYMAGFTGFHEFAEFTTEDVGTTESGLNSMALANNSENVLLPLNEPVHGTKRRSQIQTFLDHHGGPGVQHIALASDDVLRTLREMRARSAMGGFEFLPPPLSDYYDGVRKCAGDVLTEAQINECQELGVMVDRDDEGVLLQIFTKPVGDRPTFFLEIIQRIGCMEKDEKGQEYQKGGCGGFGKGNFGQLFKSIEDYEKSLEAKQAAAAATAQGS
modifications: Zea mays variant form created by artificial means.
B6: P056028-A-07 (protein)
chain: MGPTPTATAAGAAVAAASAAEQAAFRLVGHRNFVRFNPRSDRFQTLAFHHVELWCADAASAAGRFSFALGVPLAARSDLSTGNSAHASLLLRSGSLSLLFTAPYAHGADAATAALPSFSAAAARRFAADHGLAVRAVALRVADAEDAFRASVAAGARPAFGPVDLGRGFRLAEVELYGDVVLRYVSYPDGGAGEPFLPGFEGVASQGAADLGLSRFDHIVGNVPELAPAAAYMAGFTGFHEFAEFTTEDVGTTESGLNSMALANNSENVLLPLNEPVHGTKRRSQIQTFLDHHGGPGVQHIALASDDVLRTLREMRARSAMGGFEFLPPPLSDYYDGVRRCAGDVLTEAQINECQELGVMVDRDDEGVLLQIFTKPVGDRPTFFLEIIQRIGCMEKDEKGQEYQKGGCGGFGKGNFGQLFKSIEDYEKSLEAKQAAAAATAQGS
modifications: Zea mays variant form created by artificial means.

Assays:
Format in all cases: biochemical, Z. mays
[1] = tested on: 4-hydroxyphenylpyruvate dioxygenase (HPPD); assay: Insensitivity parameter (ON × OFF) and trait fitness (ON × OFF × kcat/KM or × kcat); design: key to ON × OFF / Insensitivity, mesotrione, ON × OFF / Insensitivity, tembotrione, ON × OFF / Insensitivity, topramezone, ON × OFF / Insensitivity, sulcotrione, ON × OFF / Insensitivity, isoxaflutole (DKN), ON × OFF: insensitivity = ON rate ratio × OFF rate ratio (surrogate for KD)
From the text: Because substrate and inhibitors bind in the same site, the high concentration of substrate present may competitively trap the inhibitor and prevent it from binding again. To be sure that improvement in ON rates is being taken into account, the ON and OFF rate ratios were multiplied, creating an “insensitivity parameter” that is a surrogate for KD. KD is expressed as kOFF/kON, but because the ON rate ratio is an inverse parameter (the higher the value of ON rate ratio, the lower the value of the represented phenomenon, kON), it is appropriate to multiply ON and OFF rate ratios rather then divide OFF rate ratio by ON rate ratio. Another parameter, which quantifies the combined catalytic and insensitivity properties of the enzyme is kcat/KM×ON rate ratio×OFF rate ratio, and is termed “trait fitness”. This parameter is intended to have a meaning similar to the commonly used expression kcat/KM×Ki.

[2] = tested on: 4-hydroxyphenylpyruvate dioxygenase (HPPD); assay: Estimate of kcat from initial rate at saturating hydroxyphenylpyruvate without inhibitor (ON rate ratio assay)
From the text: (§1) Higher KD (reduced affinity or increased insensitivity) can be attained with a numerically smaller ON rate, a larger OFF rate or both. To detect and quantify changes in kON and kOFF, observations of the time course of an HPPD reaction as inhibitor binds to and inactivates the enzyme (kON), or is released from a pre-formed enzyme-inhibitor complex (kOFF) were used, as shown in FIGS. 13A and 13B. In practice, a quantitative indicator of kON was obtained by monitoring the time courses of HPPD reactions containing 60 or 120 nM HPPD and 100 μM HPP in the presence and absence of 4 μM inhibitor (e.g., mesotrione or tembotrione). The ratio of the reaction rate with inhibitor to that without inhibitor during the 70 to 90 second interval of the reaction was termed the “ON rate ratio”. The smaller the actual kON, the more slowly the HPPD reaction decelerates and the higher the value is for the ON rate ratio. FIGS. 13A and 13B illustrate the contrasting reaction velocity in the 70-90 sec interval for maize wild-type HPPD (FIG. 13A) versus an improved variant (SEQ ID NO:78) (FIG. 13B).
Thirty nine variants were desensitized to tembotrione compared with the backbone enzyme, Round 7, variant 9070 (SEQ ID NO:2) and all were desensitized compared with maize wild type HPPD (SEQ ID NO:1). Because the assay for ON rate ratio includes an initial rate measurement at saturating hydroxyphenylpyruvate without inhibitor and with known enzyme concentration, an estimate of kcat was available. Taking into account kcat and insensitivity parameters, 30 variants were selected for measurement of substrate saturation kinetic parameters and re-evaluation of insensitivity to tembotrione. The kinetic and insensitivity parameters were determined as described in Example 1, and were multiplied to generate the “trait fitness” parameter. The complete list of variants, i.e., of selected single substitutions in SEQ ID NO:2, analyzed with multiple inhibitors and the results obtained are shown in Table 6. The same set of 30 variants were evaluated for insensitivity to mesotrione, sulcotrione, isoxaflutole (its active diketonitrile form, abbreviated DKN in Table 6) and topramezone.

[3] = tested on: 4-hydroxyphenylpyruvate dioxygenase (HPPD); assay: ON rate ratio: HPPD reaction rate with vs without inhibitor in the 70 to 90 second interval; conditions: Table 7; tembotrione; combinatorial variants
From the text: as §1

[4] = tested on: 4-hydroxyphenylpyruvate dioxygenase (HPPD); assay: OFF rate ratio: release of inhibitor from pre-formed enzyme-inhibitor complex; conditions: Table 7; tembotrione; combinatorial variants
Experimental: A quantitative indicator of kOFF can be obtained by observing the time course of an HPPD reaction as inhibitor is released from a pre-formed enzyme-inhibitor complex. HPPD and inhibitor were incubated together at concentrations of 7.2 and 8 μM, respectively. Incubations with the same concentrations of enzyme but no inhibitor were done in parallel. After 1 hr at room temperature, 5 to 10 μl of the enzyme-inhibitor complex was dispensed into the wells of the assay plate. Reactions were started with the addition of 290 to 295 μl of 25 mM Hepes, pH 7, 2 mM ascorbate, 10 μM FeSO4, 100 μM HPP and 50 nM HGD. The reactions were monitored at 320 nm for 12 min. Reaction velocity accelerates as inhibitor is released from the enzyme until a steady state is reached, during which the reaction velocity is constant. The ratio of the steady state rate in mixtures containing herbicidal inhibitor to the initial velocity of mixtures lacking inhibitor is termed the “OFF rate ratio”.
Another parameter to record is the time span required for the reactions with inhibitor to reach the steady state. FIGS. 13C and 13D illustrate the contrasting time span in which maize wild-type HPPD (FIG. 13C) and an improved variant (SEQ ID NO:78) (FIG. 13D) dissociated from mesotrione, as indicated by the accelerating reaction rates. The plateau of absorbance is due to exhaustion of the substrate. With the improved variant, not only was the steady state attained in a shorter time span (80 sec for the variant versus 280 sec for wild type), the velocity attained was twice as high as with wild type, though the enzymes were present at the same concentration (240 nM). This is because a larger fraction of the variant enzyme is free of inhibitor compared to the wild-type enzyme, and the kcat for both is nearly the same, about 220 min^−1.

[5] = Table 7, tembotrione, combinatorial variants
[6] = Table 7, combinatorial variants

Molecule | ON × OFF ([1]; Megatable 3, shuffled variants) | ON × OFF × kcat ([1]; Megatable 3, shuffled variants) | ON × OFF [1, 5] | ON × OFF × kcat [1, 5] | kcat ([2]; Megatable 3, shuffled variants) [s⁻¹] | kcat [2, 6] [s⁻¹] | ON rate ratio [3] | OFF rate ratio [4]
B1 | 0.217 | 5.68 | 0.217 | 5.68 | 0.437 | 0.437 | 0.669 | 0.324
B2 | 0.260 | 4.35 | 0.260 | 4.35 | 0.28 | 0.28 | 0.707 | 0.367
B3 | 0.258 | 2.21 | 0.258 | 2.21 | 0.143 | 0.143 | 0.706 | 0.366
B4 | 0.096 | 1.06 | 0.096 | 1.06 | 0.185 | 0.185 | 0.724 | 0.133
B5 | 0.198 | 3.50 | 0.198 | 3.50 | 0.295 | 0.295 | 0.707 | 0.280
B6 | 0.239 | 4.65 | 0.239 | 4.65 | 0.325 | 0.325 | 0.726 | 0.329
